Reference: patent US20240352117A1

Target: natural TSLP
Assay: cell-based or functional assay

Tezepelumab (antibody)
IC50 of inhibiting STAT5 phosphorylation in SW756-STAT5-Luciferase reporter gene cells induced by natural TSLP: 1.45 ng/mL
